Results as given in article PMC4355975, “PAT1 inversely regulates the surface Amyloid Precursor Protein level in mouse primary neurons” (BMC Neuroscience, 2015).

Experiments:
[1] = target: T1, Amyloid Precursor Protein (APP) (mouse (endogenous in primary cortical …, UniProt P12023 18-770)); experiment: co-IP; after cell surface biotinylation of mouse primary cortical neurons at 6 DIV (Cell surface Co-IP); APP precipitated with anti-APP Cter polyclonal antibody; blots for APP and PAT1; conditions: partners not purified
T1 construct: Amyloid precursor protein, endogenous in mouse primary cortical neurons; precipitated with the anti-APP Cter polyclonal antibody, detected with anti-APP-Nter A4; In the cell surface co-IP the surface pool was labelled with sulfo-NHS-biotin; source: endogenous, mouse primary cortical neurons (E16, Swiss strain), in lysate

[2] = target: T1, Amyloid Precursor Protein (APP); experiment: co-IP; total extracts of mouse primary cortical neurons at 6 DIV; APP precipitated with anti-APP Cter polyclonal antibody and protein A Sepharose; IP buffer Hepes 10 mM, NaCl 150 mM, CaCl2 2 mM, 1% Triton X 100, 4°C; blots for APP and PAT1; conditions: partners not purified

B1: PAT1 (Protein interacting with APP tail 1) (natural protein, UniProt Q9DAX9 1-585, looked up)
chain: MAAVELEWIPETLYNTAISAVVDNYIRSRRDIRSLPENIQFDVYYKLYQQGRLCQLGSEFCELEVFAKVLRALDKRHLLHHCFQALMDHGVKVASVLAYSFSRRCSYIAESDAAVKEKAIQVGFVLGGFLSDAGWYSDAEKVFLSCLQLCTLHDEMLHWFRAVECCVRLLHVRNGNCKYHLGEETFKLAQTYMDKLSKHGQQANRAALYGELCALLFAKSHYDEAYKWCVEAMKEITAGLPVKVVVDVLRQASKACVVKREFKKAEQLIKHAVYLARDHFGSKHPKYSDTLLDYGFYLLNVDNICQSVAIYQAALDIRQSVFGGKNIHVATAHEDLAYSSYVHQYSSGKFDNALFHAERAIGIITHILPEDHLLLASSKRVKALILEEIAIDCHNKETEQRLLQEAHDLHLSSLQLAKKAFGEFNVQTAKHYGNLGRLYQSMRKFKEAEEMHIKAIQIKEQLLGQEDYEVALSVGHLASLYNYDMNQYENAEKLYLRSIAIGKKLFGEGYSGLEYDYRGLIKLYNSIGNYEKVFEYHNVLSNWNRLRDRQYSVTDALEDVSSSPQSTEEVVQSFLMAQNVEGPSC
notes: PAT1 / APPBP2, endogenous in mouse primary cortical neurons; detected by blot with mAb26; also called Ara67; source: endogenous, mouse primary cortical neurons (E16, Swiss strain), in lysate
ratio of APP to PAT1 in the immunoprecipitate (arbitrary units) [1]: 6 AU | ratio of APP to PAT1 in the immunoprecipitate (arbitrary units) [2]: 2.7 AU
